The chains are these.
T1: EsCas13d, nuclease-dead (Eubacterium siraeum, UniProt B0MS50, R295A;H300A;R849A;H854A)
T1 sequence: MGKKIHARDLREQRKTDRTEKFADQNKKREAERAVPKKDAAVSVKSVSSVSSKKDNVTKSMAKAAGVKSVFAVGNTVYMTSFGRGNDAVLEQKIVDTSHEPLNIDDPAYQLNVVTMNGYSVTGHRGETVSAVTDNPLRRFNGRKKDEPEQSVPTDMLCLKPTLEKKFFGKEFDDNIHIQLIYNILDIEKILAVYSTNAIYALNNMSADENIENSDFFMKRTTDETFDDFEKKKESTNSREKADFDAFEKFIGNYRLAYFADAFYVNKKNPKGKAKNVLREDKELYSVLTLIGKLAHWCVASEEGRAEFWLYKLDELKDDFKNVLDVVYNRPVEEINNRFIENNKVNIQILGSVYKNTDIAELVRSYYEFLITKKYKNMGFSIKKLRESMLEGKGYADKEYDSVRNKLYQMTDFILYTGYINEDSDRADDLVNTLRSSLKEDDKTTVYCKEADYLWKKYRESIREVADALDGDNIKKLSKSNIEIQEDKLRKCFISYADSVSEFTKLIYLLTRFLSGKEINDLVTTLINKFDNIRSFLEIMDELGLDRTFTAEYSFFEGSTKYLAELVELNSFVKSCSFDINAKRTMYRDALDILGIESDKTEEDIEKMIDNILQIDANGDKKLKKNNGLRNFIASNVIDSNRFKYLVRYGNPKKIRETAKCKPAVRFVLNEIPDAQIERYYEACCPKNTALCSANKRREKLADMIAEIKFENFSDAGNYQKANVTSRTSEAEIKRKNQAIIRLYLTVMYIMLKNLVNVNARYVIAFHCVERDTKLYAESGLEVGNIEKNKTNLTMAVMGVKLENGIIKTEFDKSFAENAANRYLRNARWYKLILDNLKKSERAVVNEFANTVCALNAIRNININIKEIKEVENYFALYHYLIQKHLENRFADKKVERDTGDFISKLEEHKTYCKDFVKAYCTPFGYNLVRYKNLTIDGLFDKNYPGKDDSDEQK

B1: target 2 MT 5'PFS UAG 3'PFS UAC (mixed)
RNA 1: CACCCGUGCAAAAUUGCAGGGGUCUAAAACCUUCUCCAAAUUGUUUCAUCCU
RNA 2: GGGAAUGGAUCCACAUCUACGAAUUCUAGAGGAUGAAACAAUUUGGAGAAGUACAGAUCGGAAGAGCACACGU
B2: target 2 MT 5'PFS UUA 3'PFS AGC (mixed)
RNA 1: CACCCGUGCAAAAUUGCAGGGGUCUAAAACCUUCUCCAAAUUGUUUCAUCCU
RNA 2: GGGAAUGGAUCCACAUCUACGAAUUCUUAAGGAUGAAACAAUUUGGAGAAGAGCAGAUCGGAAGAGCACACGU
B3: target 2 MT 5'PFS UUA 3'PFS CGA (mixed)
RNA 1: CACCCGUGCAAAAUUGCAGGGGUCUAAAACCUUCUCCAAAUUGUUUCAUCCU
RNA 2: GGGAAUGGAUCCACAUCUACGAAUUCUUAAGGAUGAAACAAUUUGGAGAAGCGAAGAUCGGAAGAGCACACGU
B4: target 2 MT 5'PFS AGU 3'PFS ACG (mixed)
RNA 1: CACCCGUGCAAAAUUGCAGGGGUCUAAAACCUUCUCCAAAUUGUUUCAUCCU
RNA 2: GGGAAUGGAUCCACAUCUACGAAUUCAGUAGGAUGAAACAAUUUGGAGAAGACGAGAUCGGAAGAGCACACGU
B5: target 2 MT 5'PFS GUG 3'PFS ACA (mixed)
RNA 1: CACCCGUGCAAAAUUGCAGGGGUCUAAAACCUUCUCCAAAUUGUUUCAUCCU
RNA 2: GGGAAUGGAUCCACAUCUACGAAUUCGUGAGGAUGAAACAAUUUGGAGAAGACAAGAUCGGAAGAGCACACGU
B6: target 2 MT 5'PFS UUA 3'PFS CGG (mixed)
RNA 1: CACCCGUGCAAAAUUGCAGGGGUCUAAAACCUUCUCCAAAUUGUUUCAUCCU
RNA 2: GGGAAUGGAUCCACAUCUACGAAUUCUUAAGGAUGAAACAAUUUGGAGAAGCGGAGAUCGGAAGAGCACACGU
B7: target 2 MT 5'PFS ACC 3'PFS UAC (mixed)
RNA 1: CACCCGUGCAAAAUUGCAGGGGUCUAAAACCUUCUCCAAAUUGUUUCAUCCU
RNA 2: GGGAAUGGAUCCACAUCUACGAAUUCACCAGGAUGAAACAAUUUGGAGAAGUACAGAUCGGAAGAGCACACGU
B8: target 2 MT 5'PFS GUG 3'PFS ACG (mixed)
RNA 1: CACCCGUGCAAAAUUGCAGGGGUCUAAAACCUUCUCCAAAUUGUUUCAUCCU
RNA 2: GGGAAUGGAUCCACAUCUACGAAUUCGUGAGGAUGAAACAAUUUGGAGAAGACGAGAUCGGAAGAGCACACGU
B9: target 2 MT 5'PFS GUG 3'PFS ACU (mixed)
RNA 1: CACCCGUGCAAAAUUGCAGGGGUCUAAAACCUUCUCCAAAUUGUUUCAUCCU
RNA 2: GGGAAUGGAUCCACAUCUACGAAUUCGUGAGGAUGAAACAAUUUGGAGAAGACUAGAUCGGAAGAGCACACGU
B10: target 2 MT 5'PFS UCU 3'PFS UAA (mixed)
RNA 1: CACCCGUGCAAAAUUGCAGGGGUCUAAAACCUUCUCCAAAUUGUUUCAUCCU
RNA 2: GGGAAUGGAUCCACAUCUACGAAUUCUCUAGGAUGAAACAAUUUGGAGAAGUAAAGAUCGGAAGAGCACACGU
B11: target 2 MT 5'PFS UUA 3'PFS CGC (mixed)
RNA 1: CACCCGUGCAAAAUUGCAGGGGUCUAAAACCUUCUCCAAAUUGUUUCAUCCU
RNA 2: GGGAAUGGAUCCACAUCUACGAAUUCUUAAGGAUGAAACAAUUUGGAGAAGCGCAGAUCGGAAGAGCACACGU
B12: target 2 MT 5'PFS GUG 3'PFS ACC (mixed)
RNA 1: CACCCGUGCAAAAUUGCAGGGGUCUAAAACCUUCUCCAAAUUGUUUCAUCCU
RNA 2: GGGAAUGGAUCCACAUCUACGAAUUCGUGAGGAUGAAACAAUUUGGAGAAGACCAGAUCGGAAGAGCACACGU
B13: target 2 MT 5'PFS ACG 3'PFS UCU (mixed)
RNA 1: CACCCGUGCAAAAUUGCAGGGGUCUAAAACCUUCUCCAAAUUGUUUCAUCCU
RNA 2: GGGAAUGGAUCCACAUCUACGAAUUCACGAGGAUGAAACAAUUUGGAGAAGUCUAGAUCGGAAGAGCACACGU
B14: target 2 MT 5'PFS ACC 3'PFS UAG (mixed)
RNA 1: CACCCGUGCAAAAUUGCAGGGGUCUAAAACCUUCUCCAAAUUGUUUCAUCCU
RNA 2: GGGAAUGGAUCCACAUCUACGAAUUCACCAGGAUGAAACAAUUUGGAGAAGUAGAGAUCGGAAGAGCACACGU
B15: target 2 MT 5'PFS UUA 3'PFS AGA (mixed)
RNA 1: CACCCGUGCAAAAUUGCAGGGGUCUAAAACCUUCUCCAAAUUGUUUCAUCCU
RNA 2: GGGAAUGGAUCCACAUCUACGAAUUCUUAAGGAUGAAACAAUUUGGAGAAGAGAAGAUCGGAAGAGCACACGU
B16: target 2 MT 5'PFS UCU 3'PFS UAC (mixed)
RNA 1: CACCCGUGCAAAAUUGCAGGGGUCUAAAACCUUCUCCAAAUUGUUUCAUCCU
RNA 2: GGGAAUGGAUCCACAUCUACGAAUUCUCUAGGAUGAAACAAUUUGGAGAAGUACAGAUCGGAAGAGCACACGU
B17: target 2 MT 5'PFS AGA 3'PFS AGA (mixed)
RNA 1: CACCCGUGCAAAAUUGCAGGGGUCUAAAACCUUCUCCAAAUUGUUUCAUCCU
RNA 2: GGGAAUGGAUCCACAUCUACGAAUUCAGAAGGAUGAAACAAUUUGGAGAAGAGAAGAUCGGAAGAGCACACGU
B18: target 2 MT 5'PFS UAG 3'PFS UAA (mixed)
RNA 1: CACCCGUGCAAAAUUGCAGGGGUCUAAAACCUUCUCCAAAUUGUUUCAUCCU
RNA 2: GGGAAUGGAUCCACAUCUACGAAUUCUAGAGGAUGAAACAAUUUGGAGAAGUAAAGAUCGGAAGAGCACACGU
B19: target 2 MT 5'PFS AGU 3'PFS ACU (mixed)
RNA 1: CACCCGUGCAAAAUUGCAGGGGUCUAAAACCUUCUCCAAAUUGUUUCAUCCU
RNA 2: GGGAAUGGAUCCACAUCUACGAAUUCAGUAGGAUGAAACAAUUUGGAGAAGACUAGAUCGGAAGAGCACACGU
B20: target 2 MT 5'PFS ACC 3'PFS UAU (mixed)
RNA 1: CACCCGUGCAAAAUUGCAGGGGUCUAAAACCUUCUCCAAAUUGUUUCAUCCU
RNA 2: GGGAAUGGAUCCACAUCUACGAAUUCACCAGGAUGAAACAAUUUGGAGAAGUAUAGAUCGGAAGAGCACACGU
B21: target 2 MT 5'PFS UUA 3'PFS AGG (mixed)
RNA 1: CACCCGUGCAAAAUUGCAGGGGUCUAAAACCUUCUCCAAAUUGUUUCAUCCU
RNA 2: GGGAAUGGAUCCACAUCUACGAAUUCUUAAGGAUGAAACAAUUUGGAGAAGAGGAGAUCGGAAGAGCACACGU
B22: target 1 insG 3' of 14,insG 3' of 9 (mixed)
RNA 1: CACCCGUGCAAAAAUGCAGGGGUCUAAAACUGAGCGGAUAACCUCUCUAUGG
RNA 2: GGGAAUGGAUCCACAUCUACGAAUUCGUACCAUAGAGAGGGUUAGUCCGCUCACCGAGAUCGGAAGAGCACACGU
B23: target 1 insC 3' of 15,insC 3' of 3 (mixed)
RNA 1: CACCCGUGCAAAAAUGCAGGGGUCUAAAACUGAGCGGAUAACCUCUCUAUGG
RNA 2: GGGAAUGGAUCCACAUCUACGAAUUCGUACCAUAGAGCAGGUUAUCCGCUCCACCGAGAUCGGAAGAGCACACGU

The target in the data set is T1, EsCas13d, nuclease-dead. As to the kind of experiment: crRNA (strand 1, pre-loaded); Mg2+; 40 mM Tris-HCl pH 7.5, 150 mM NaCl, 6 mM MgCl2, 1 mM DTT, 0.1% Tween-20, 0.2 mg/ml BSA; 25 C; 10 min per concentration, then washed. Conditions: tags: His6-TwinStrep-SUMO cleaved; N-terminal SNAP kept (SNAP-Surface 488); label: 3' end held by stalled T7 RNA polymerase.
By Kd is commonly meant the equilibrium constant for the complex coming apart. Low values mean higher affinity, high ones lower affinity. B1 registered a Kd of 2.65 ± 0.29 nM.

In turn, B2 had a Kd of 19.3 ± 2.2 nM.

As to B3, the equilibrium dissociation constant (Kd) turned out to be 24 ± 4 nM.

B4 gave a dissociation constant Kd of 13.8 ± 1.7 nM.

Take B5: binding was put at a Kd of 10.3 ± 0.9 nM.

Molecule B6 had a Kd of 20.9 ± 2.1 nM.

B7: the Kd was 12 ± 5 nM.

With B8, binding was characterised by a dissociation constant (Kd) of 13.1 ± 0.8 nM.

The molecule B9 gave a dissociation constant Kd of 12.9 ± 0.7 nM.

In the case of B10, the dissociation constant Kd stood at 12.8 ± 3.2 nM.

Regarding B11, the Kd is 48 ± 10 nM.

B12 displayed a Kd of 20.8 ± 2.1 nM.

As to B13, the affinity, expressed as Kd, was 23 ± 7 nM.

With B14, the dissociation constant Kd was 4.6 ± 0.8 nM. This Kd lies about 5-fold lower than the previous one.

The molecule B15 gave an equilibrium dissociation constant (Kd) of 19.4 ± 3.2 nM.

Take B16: the Kd is 12.8 ± 2.5 nM.

Consider B17, for which the Kd came out at 4.9 ± 0.7 nM.

B18 gave a Kd of 2.8 ± 0.4 nM.

B19 displayed a Kd of 22 ± 7 nM.

Molecule B20 gave a Kd of 6.5 ± 1.4 nM.

Consider B21, for which the affinity, expressed as Kd, was 23.1 ± 3 nM.

For the molecule B22, binding was characterised by a dissociation constant (Kd) of 21.5 ± 1.5 nM.

B23 returned an equilibrium dissociation constant (Kd) of 17.3 ± 0.9 nM.
